The data set concerns the target TOPOIIIalpha (TRR complex);RMI1 (TRR complex);RMI2 (TRR complex) (Homo sapiens;Homo sapiens;Homo sapiens, UniProt Q13472;Q9H9A7;Q96E14 1-1001;1-625;1-147, ||). Nature of the data set: fluorescence anisotropy; 5 mM MgCl2; 50 mM Tris-HCl pH 7.5, 50 mM NaCl, 1 mM DTT, 5 mM MgCl2, 50 µg/mL BSA, 25 °C; 10 nM labeled DNA in direct titrations. To be noted: protein: recombinant;recombinant;recombinant; tags: His;;; copies: 1;1;1; label: 3'-fluorescein; single strand. (Fluorescence polarisation rises when a labelled molecule tumbles more slowly, as on binding a larger partner.)

Chain of TOPOIIIalpha (TRR complex);RMI1 (TRR complex);RMI2 (TRR complex) (Q13472 whole entry, chain 1 of 3): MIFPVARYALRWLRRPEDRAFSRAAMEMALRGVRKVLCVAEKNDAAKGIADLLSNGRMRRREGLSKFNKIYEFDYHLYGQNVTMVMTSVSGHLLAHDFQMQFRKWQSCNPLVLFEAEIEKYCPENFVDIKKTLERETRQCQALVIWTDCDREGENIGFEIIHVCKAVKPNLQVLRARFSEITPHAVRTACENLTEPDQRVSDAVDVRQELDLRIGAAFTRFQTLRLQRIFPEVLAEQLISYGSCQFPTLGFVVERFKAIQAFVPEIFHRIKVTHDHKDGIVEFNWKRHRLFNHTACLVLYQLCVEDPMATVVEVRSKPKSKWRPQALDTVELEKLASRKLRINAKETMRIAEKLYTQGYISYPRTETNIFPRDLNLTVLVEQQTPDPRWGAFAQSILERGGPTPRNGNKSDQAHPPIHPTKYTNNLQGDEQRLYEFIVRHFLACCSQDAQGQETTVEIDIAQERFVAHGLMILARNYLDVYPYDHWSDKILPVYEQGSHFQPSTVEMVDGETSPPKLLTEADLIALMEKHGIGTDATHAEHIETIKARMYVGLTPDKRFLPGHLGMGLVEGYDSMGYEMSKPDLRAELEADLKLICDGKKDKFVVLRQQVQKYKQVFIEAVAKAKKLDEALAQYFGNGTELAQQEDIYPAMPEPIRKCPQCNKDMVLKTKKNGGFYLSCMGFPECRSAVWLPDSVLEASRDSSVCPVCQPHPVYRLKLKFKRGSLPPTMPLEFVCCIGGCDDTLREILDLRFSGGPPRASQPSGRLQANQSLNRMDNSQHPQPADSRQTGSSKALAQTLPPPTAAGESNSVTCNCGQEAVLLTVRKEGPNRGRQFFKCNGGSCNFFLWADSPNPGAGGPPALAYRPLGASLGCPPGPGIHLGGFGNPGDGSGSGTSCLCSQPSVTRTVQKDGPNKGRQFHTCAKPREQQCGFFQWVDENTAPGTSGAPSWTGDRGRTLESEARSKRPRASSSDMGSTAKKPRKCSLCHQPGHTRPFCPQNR
Chain of TOPOIIIalpha (TRR complex);RMI1 (TRR complex);RMI2 (TRR complex) (Q9H9A7 whole entry, chain 2 of 3): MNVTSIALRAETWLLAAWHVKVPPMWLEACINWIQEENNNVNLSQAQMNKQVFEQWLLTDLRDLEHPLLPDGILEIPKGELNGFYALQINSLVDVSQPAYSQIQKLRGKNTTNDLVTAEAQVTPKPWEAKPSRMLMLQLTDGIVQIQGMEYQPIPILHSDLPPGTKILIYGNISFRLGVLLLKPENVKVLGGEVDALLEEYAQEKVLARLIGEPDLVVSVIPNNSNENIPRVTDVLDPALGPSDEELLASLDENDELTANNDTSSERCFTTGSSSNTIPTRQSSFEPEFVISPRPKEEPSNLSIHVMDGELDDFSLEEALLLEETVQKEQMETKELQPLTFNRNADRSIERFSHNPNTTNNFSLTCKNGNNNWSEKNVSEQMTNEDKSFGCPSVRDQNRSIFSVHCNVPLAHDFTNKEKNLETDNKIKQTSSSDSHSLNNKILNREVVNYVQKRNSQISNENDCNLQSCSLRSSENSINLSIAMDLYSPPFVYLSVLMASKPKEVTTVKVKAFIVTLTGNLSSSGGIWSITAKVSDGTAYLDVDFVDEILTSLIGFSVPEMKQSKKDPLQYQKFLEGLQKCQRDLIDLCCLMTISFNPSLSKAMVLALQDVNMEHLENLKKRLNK
Chain of TOPOIIIalpha (TRR complex);RMI1 (TRR complex);RMI2 (TRR complex) (Q96E14 whole entry, chain 3 of 3): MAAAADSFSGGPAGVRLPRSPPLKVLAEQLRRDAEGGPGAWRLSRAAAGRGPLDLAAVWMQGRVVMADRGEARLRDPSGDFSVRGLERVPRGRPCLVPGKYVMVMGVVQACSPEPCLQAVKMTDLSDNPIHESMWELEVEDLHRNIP

B1: ss54-FLU (ssDNA)
DNA: TCCTTTTGATAAGAGGTCATTTTTGCGGATGGCTTAGAGCTTAATTGCGCAACG
With B1, the Kd (commonly the free concentration of one partner at which half of the binding sites on the other are occupied at equilibrium, for simple one-to-one binding) is 64 ± 13 nM.

Values taken from PMC8813930, “The toposiomerase IIIalpha-RMI1-RMI2 complex orients human Bloom’s syndrome helicase for efficient disruption of D-loops”.
